Reference: the supplement of paper PMC10567573

B1: RSPH3 (parent)
chain: KAASLARNLAKRRRTYLGGAAGRS

Variants of: B1
Experiment: protein stability index of a GFP-peptide fusion (GPS, HEK-293T) (PSI 1-6); higher = more stable
Conditions: c terminus: a fixed tail appended
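Note: lentivirally expressed fusions sorted by FACS into six bins by GFP to DsRed ratio, PSI derived from sequencing read proportions per bin multiplied by bin number.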

Variant	protein stability index
KAASLARNLVKRRRTYLGGAAGRS [A10V]	2.43
KAASLARNLTKRRRTYLGGAAGRS [A10T]	3.17
KAASLARNLNKRRRTYLGGAAGRS [A10N]	2.64
KAASLARNLCKRRRTYLGGAAGRS [A10C]	1.98
KAASLARNLGKRRRTYLGGAAGRS [A10G]	4.07
KAASLARNLFKRRRTYLGGAAGRS [A10F]	1.29
KAASLARNLSKRRRTYLGGAAGRS [A10S]	2.91
KAASLARNLDKRRRTYLGGAAGRS [A10D]	3.14
KAASLARNLHKRRRTYLGGAAGRS [A10H]	3.15
KAASLARNLANRRRTYLGGAAGRS [K11N]	2.36
KAASLARNLAWRRRTYLGGAAGRS [K11W]	1.71
KAASLARNLAFRRRTYLGGAAGRS [K11F]	1.92
KAASLARNLAARRRTYLGGAAGRS [K11A]	1.64
KAASLARNLAQRRRTYLGGAAGRS [K11Q]	1.98
KAASLARNLAPRRRTYLGGAAGRS [K11P]	2.89
KAASLARNLARRRRTYLGGAAGRS [K11R]	2.91
KAASLARNLAIRRRTYLGGAAGRS [K11I]	2.78
KAASLARNLAGRRRTYLGGAAGRS [K11G]	2.49
KAASLARNLATRRRTYLGGAAGRS [K11T]	1.56
KAASLAGNLAKRRRTYLGGAAGRS [R7G]	2.54
KAASLADNLAKRRRTYLGGAAGRS [R7D]	3.83
KAASLALNLAKRRRTYLGGAAGRS [R7L]	2.51
KAASLAVNLAKRRRTYLGGAAGRS [R7V]	1.98
KAASLANNLAKRRRTYLGGAAGRS [R7N]	3.59

Variant	protein stability index
KAASLASNLAKRRRTYLGGAAGRS [R7S]	2.58
KAASLAENLAKRRRTYLGGAAGRS [R7E]	4.36
KAASLATNLAKRRRTYLGGAAGRS [R7T]	2.08
KAASAARNLAKRRRTYLGGAAGRS [L5A]	4.18
KAASDARNLAKRRRTYLGGAAGRS [L5D]	4.65
KAASTARNLAKRRRTYLGGAAGRS [L5T]	3.96
KAASCARNLAKRRRTYLGGAAGRS [L5C]	2.89
KAASWARNLAKRRRTYLGGAAGRS [L5W]	2.58
KAASMARNLAKRRRTYLGGAAGRS [L5M]	2.33
KAASGARNLAKRRRTYLGGAAGRS [L5G]	4.8
KAASQARNLAKRRRTYLGGAAGRS [L5Q]	4.14
KAASVARNLAKRRRTYLGGAAGRS [L5V]	4.21
KAASFARNLAKRRRTYLGGAAGRS [L5F]	2.56
KAASIARNLAKRRRTYLGGAAGRS [L5I]	2.58
KAASLARNFAKRRRTYLGGAAGRS [L9F]	2.44
KAASLARNRAKRRRTYLGGAAGRS [L9R]	4.9
KAASLARNNAKRRRTYLGGAAGRS [L9N]	4.46
KAASLARNEAKRRRTYLGGAAGRS [L9E]	4.34
KAASLARNWAKRRRTYLGGAAGRS [L9W]	2.38
KAASLARNKAKRRRTYLGGAAGRS [L9K]	4.94
KAASLARNPAKRRRTYLGGAAGRS [L9P]	3.94
KAASLARNAAKRRRTYLGGAAGRS [L9A]	3.41
KAAVLARNLAKRRRTYLGGAAGRS [S4V]	2.36
KAAQLARNLAKRRRTYLGGAAGRS [S4Q]	2.36

Variant	protein stability index
KAARLARNLAKRRRTYLGGAAGRS [S4R]	2.82
KAAALARNLAKRRRTYLGGAAGRS [S4A]	1.89
KAAYLARNLAKRRRTYLGGAAGRS [S4Y]	1.48
KAAGLARNLAKRRRTYLGGAAGRS [S4G]	3.32
KAAILARNLAKRRRTYLGGAAGRS [S4I]	1.83
KAAELARNLAKRRRTYLGGAAGRS [S4E]	1.99
KAAHLARNLAKRRRTYLGGAAGRS [S4H]	2.32
KAAWLARNLAKRRRTYLGGAAGRS [S4W]	1.89
KAACLARNLAKRRRTYLGGAAGRS [S4C]	1.98
KAADLARNLAKRRRTYLGGAAGRS [S4D]	3.47
KAANLARNLAKRRRTYLGGAAGRS [S4N]	3.2
KAASLARNLAKNRRTYLGGAAGRS [R12N]	2.4
KAASLARNLAKIRRTYLGGAAGRS [R12I]	2.24
KAASLARNLAKHRRTYLGGAAGRS [R12H]	2.41
KAASLARNLAKQRRTYLGGAAGRS [R12Q]	2.24
KAASLARNLAKGRRTYLGGAAGRS [R12G]	2.75
KAASLARNLAKYRRTYLGGAAGRS [R12Y]	1.18
KAASLARNLAKCRRTYLGGAAGRS [R12C]	2.46
KAASLARNLAKKRRTYLGGAAGRS [R12K]	2.9
KAASLARNLAKFRRTYLGGAAGRS [R12F]	1.68
HAASLARNLAKRRRTYLGGAAGRS [K1H]	2.49
GAASLARNLAKRRRTYLGGAAGRS [K1G]	3.77
AAASLARNLAKRRRTYLGGAAGRS [K1A]	1.98
CAASLARNLAKRRRTYLGGAAGRS [K1C]	1.87

Variant	protein stability index
TAASLARNLAKRRRTYLGGAAGRS [K1T]	2.98
WAASLARNLAKRRRTYLGGAAGRS [K1W]	2.29
FAASLARNLAKRRRTYLGGAAGRS [K1F]	1.47
KNASLARNLAKRRRTYLGGAAGRS [A2N]	3.47
KGASLARNLAKRRRTYLGGAAGRS [A2G]	3
KSASLARNLAKRRRTYLGGAAGRS [A2S]	3.04
KQASLARNLAKRRRTYLGGAAGRS [A2Q]	3.13
KEASLARNLAKRRRTYLGGAAGRS [A2E]	3.41
KFASLARNLAKRRRTYLGGAAGRS [A2F]	2.08
KRASLARNLAKRRRTYLGGAAGRS [A2R]	3.91
KTASLARNLAKRRRTYLGGAAGRS [A2T]	3.68
KIASLARNLAKRRRTYLGGAAGRS [A2I]	1.71
KAASLARLLAKRRRTYLGGAAGRS [N8L]	2.26
KAASLARSLAKRRRTYLGGAAGRS [N8S]	2.88
KAASLARQLAKRRRTYLGGAAGRS [N8Q]	1.35
KAASLARFLAKRRRTYLGGAAGRS [N8F]	2.33
KAASLARGLAKRRRTYLGGAAGRS [N8G]	3.98
KAASLARKLAKRRRTYLGGAAGRS [N8K]	2.52
KAASLARDLAKRRRTYLGGAAGRS [N8D]	3.23
KAASLARYLAKRRRTYLGGAAGRS [N8Y]	3.42
KAASLARNLAKRRGTYLGGAAGRS [R14G]	1.73
KAASLARNLAKRRQTYLGGAAGRS [R14Q]	2.57
